Assay results published in patent US20260193348A1 (ANTENGENE BIOLOGICS, published 2026).
Where a chain is given by its changes, count along the chain named. Numbers in names are those of the source. Like-named read-outs stand apart in the source and are kept apart here.

Key:
[1] = target: T1, CD3 (Cluster of Differentiation 3 protein), human, on T cells / Jurkat cells (human, UniProt P07766 23-207; P04234 22-171; P09693 23-182); assay: FACS, Jurkat cells, antibody at 50 µg/ml
T1 construct: whole, on cells; part of the TCR-CD3 complex; also called human CD3
T1 sequence (P07766 23-207, chain 1 of 3): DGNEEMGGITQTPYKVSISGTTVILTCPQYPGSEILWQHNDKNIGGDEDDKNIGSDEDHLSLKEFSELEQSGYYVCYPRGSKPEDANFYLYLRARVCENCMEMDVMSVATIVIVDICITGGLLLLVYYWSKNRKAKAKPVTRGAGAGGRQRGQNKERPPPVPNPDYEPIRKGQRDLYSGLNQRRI
T1 sequence (P04234 22-171, chain 2 of 3): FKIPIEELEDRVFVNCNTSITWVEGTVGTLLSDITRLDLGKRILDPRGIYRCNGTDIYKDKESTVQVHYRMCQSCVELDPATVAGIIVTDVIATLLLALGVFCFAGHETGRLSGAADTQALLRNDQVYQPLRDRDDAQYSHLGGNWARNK
T1 sequence (P09693 23-182, chain 3 of 3): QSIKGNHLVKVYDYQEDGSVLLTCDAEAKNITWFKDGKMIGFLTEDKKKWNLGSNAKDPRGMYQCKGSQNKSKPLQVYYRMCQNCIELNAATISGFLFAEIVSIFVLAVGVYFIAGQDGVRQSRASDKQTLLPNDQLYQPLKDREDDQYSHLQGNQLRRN
How it was run: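 Jurkat cells in PBS + 1% BSA were incubated with humanized Fab-scFv-Fab bispecific antibody dilutions for 1 hour at 4 degrees, then washed. A secondary antibody was applied for 0.5 hours at 4 degrees. Binding was read as fluorescence by flow cytometry.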

[2] = target: T2, GPRC5D (G-protein coupled receptor family C group 5 member D), human, on multiple myeloma cell lines (human, UniProt Q9NZD1 1-345); assay: FACS, MM.1S cells
T2 construct: whole, on cells; Target as carried by MM.1S, MOLP-8, L363 and RPMI8226 cells
T2 sequence (Q9NZD1 whole entry): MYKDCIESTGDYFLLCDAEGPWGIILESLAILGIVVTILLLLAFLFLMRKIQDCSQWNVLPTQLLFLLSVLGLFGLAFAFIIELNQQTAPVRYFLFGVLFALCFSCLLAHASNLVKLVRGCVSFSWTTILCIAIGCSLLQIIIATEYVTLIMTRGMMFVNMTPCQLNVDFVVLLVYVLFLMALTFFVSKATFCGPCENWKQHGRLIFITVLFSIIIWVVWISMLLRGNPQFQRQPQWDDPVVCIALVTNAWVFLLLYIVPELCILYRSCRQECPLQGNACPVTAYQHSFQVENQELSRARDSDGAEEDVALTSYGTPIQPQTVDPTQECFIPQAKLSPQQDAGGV
Protocol: (§1) The binding affinities of the generated humanized Fab-scFv-Fab bispecific antibodies were determined by FACS analysis. […] (a) Jurkat cells were washed by Staining Buffer (PBS+1% BSA) in round bottom 96-well plate. [0833] (b) Antibody dilutions and cells were added to each well, incubated at 4 degrees for 1 hour. [0834] (c) Cells were spined down at 300 g for 3 minutes, and the supernatants were discarded. [0835] (d) Cells were washed with Staining Buffer. […] (e) Step (d) was repeated and the cells were incubated for 0.5 hours at 4 degrees with secondary antibody in Staining Buffer. [0837] (f) After incubation, step (d)-(e) were repeated. […] (g) Staining Buffer was added and fluorescence signals were recorded by flow cytometry.
(§2) The binding affinities of the generated humanized Fab-scFv-Fab bispecific antibodies to different multiple myeloma cell lines were evaluated by FACS analysis. The protocol for FACS analysis is identical to that described in Example 3.2, except that different cells were used in this example, i.e., multiple myeloma cell lines (MM.1S, […], L363 and RPMI 8226) were used in this example.

[3] = target: T1, CD3 (Cluster of Differentiation 3 …); assay: FACS, CD3+ T cells isolated from normal donors
Protocol: To evaluate the binding affinity of the generated chimeric bispecific antibody to T cells, the isolated CD3⁺ T cells were stained by antibodies and the binding affinity was determined by FACS analysis. The protocol of FACS analysis is described as follows: [0785] (a) CD3⁺ T cells were isolated from normal donors. [0786] (b) The isolated CD3⁺ T cells were washed by Staining Buffer (PBS+1% BSA) in round bottom 96-well plate. […] (c) Antibody dilutions were added to each well and mixed with the CD3+ T cells, incubated at 4 degrees for 1 hour. […] (d) Cells were spined at 300 g for 3 minutes, then the supernatants were discarded. [0789] (e) Cells were washed with Staining Buffer. [0790] (f) Step (d) was repeated, and the cells were incubated with secondary antibody in Staining Buffer for 0.5 hours at 4 degrees. [0791] (g) After incubation, step (d)-(e) were repeated. [0792] (h) Cells were resuspended in Staining Buffer and fluorescence signals were recorded by flow cytometry.

[4] = target: T2, GPRC5D (G-protein coupled receptor …); assay: cell-based or functional assay
[5] = target: T2, GPRC5D (G-protein coupled receptor …); assay: cell-based or functional assay; remark: listed apart in the source
[6] = target: T2, GPRC5D (G-protein coupled receptor …); assay: cell-based or functional assay; remark: listed apart in the source
[7] = target: T2, GPRC5D (G-protein coupled receptor …); assay: cell-based or functional assay; remark: listed apart in the source
[8] = target: T2, GPRC5D (G-protein coupled receptor …); assay: FACS, MOLP-8 cells
Protocol: as §1, §2

GPRC5D on MM.1S cells [9] = target: T3, GPRC5D on MM.1S cells (human, UniProt Q9NZD1 1-345); assay: FACS on MM.1S cells
T3 construct: whole, on cells; MM.1S is called a GPRC5D positive expressed cell line and human multiple myeloma cells; also called G-protein coupled receptor family C group 5 member D
T3 sequence (Q9NZD1 whole entry): as above

GPRC5D on MM.1S cells [10] = target: T3, GPRC5D on MM.1S cells; assay: cell-based or functional assay
CD3 on Jurkat cells = target: T4, CD3 on Jurkat cells (UniProt P07766 23-207; P04234 22-171; P09693 23-182); assay: FACS on Jurkat cells
T4 construct: whole, on cells; On the cell, CD3 stands in the TCR-CD3 complex; also called cluster of differentiation 3
T4 sequence (P07766 23-207, chain 1 of 3): as the sequence (P07766 23-207, chain 1 of 3) above
T4 sequence (P04234 22-171, chain 2 of 3): as the sequence (P04234 22-171, chain 2 of 3) above
T4 sequence (P09693 23-182, chain 3 of 3): as the sequence (P09693 23-182, chain 3 of 3) above
Protocol: as §1
The binding affinities of the generated humanized Fab-scFv-Fab bispecific antibodies were determined by FACS analysis. The ATG-Bis-40E9 described in Example 1 was used as positive control and hIgG1 isotype was used as negative control. The protocol for FACS analysis is described in Example 3.2 above.

GPRC5D on MM.1S cells [11] = target: T3, GPRC5D on MM.1S cells; assay: cell-based or functional assay; remark: listed apart in the source

B1: ATG-Bis-40E9 (bispecific antibody)
heavy: EVQLQQSGPELVKPGASVKMSCKASGYTFTSYVIHWVKQKTGQGLEWIGYFNPYNDGTKYNEEFKGKATLTSDKSSNTAYMELNSLTSDDSAVYFCARGGVRRYFDVWGAGTTVTVSS
heavy (part 1 of 2): B1 heavy
heavy (part 2 of 2): GGGGSGGGGSEVQLQLSGPELVKPGASVKMSCKASGYTFSSYVIHWVKQKPGQGLEWIGYINPYNDVIKYNEKFKGKATLTSDKSSSTAYMELSSLTSEDSAVYYCARDSYYSYDGFAYWGQGTLVTVSAGGGGSGGGGSGGGGSGGGGSQIVLTQSPAIMSASPGEKVTMTCSASSSVSYMHWYQQKSGTSPKRWIYDTSKLASGVPARFSGSGSGTSYSLTISSMEAEDAATYYCQQWSSNPPTFGGGTKVEIKGGGGSGGGGS
light: DIQMTQSPSSLSASLGERVSLTCRASQDIGSNLNWLQQEPDGTIKRLIYATFGLDSGVPKRFSGSRSGSDYSLTISSLESEDFVDYYCQQYASFPYTFGGGTKLEIK
notes: Fab-scFv-Fab (2+1) format: two anti-GPRC5D Fabs, one anti-CD3 scFv; LALA (L234A, L235A, EU); also called chimeric 2+1 bispecific antibody; 108C4C12 Fab x 40-C12-C10-E9 scFv; not shown: CH1; CL; CH2-CH3 with L234A, L235A; heavy chain constant region with L234A, L235A
MFI (50 µg/ml) [1]: 490 MFI | EC50 [2]: 11.3 nM | Top (MFI) [2]: 1200 MFI | EC50 [3]: 287 nM | Top (MFI) [3]: 1990 MFI | EC50 (nM), luciferase assay, L363 [4]: 69.4 nM | EC50 (nM), luciferase assay, MM.1S [4]: 0.739 nM | EC50 (nM), luciferase assay, MOLP-8 [4]: 0.374 nM | EC50 (nM), luciferase assay, RPMI8226 [4]: 0.071 nM | IC50 (nM), T-Cell Dependent Cytotoxicity, MM.1S [5]: 0.00641 nM | IC50 (nM), T-Cell Dependent Cytotoxicity, MOLP-8 [5]: 0.00607 nM | IC50 (nM), T-Cell Dependent Cytotoxicity, RPMI8226 [5]: 0.0351 nM | Top (%), T-Cell Dependent Cytotoxicity, MM.1S [5]: 81.5% | Top (%), T-Cell Dependent Cytotoxicity, MOLP-8 [5]: 59% | Top (%), T-Cell Dependent Cytotoxicity, RPMI8226 [5]: 9% | EC50 (nM), luciferase assay, L363 [6]: 0.028 nM | EC50 (nM), luciferase assay, MM.1S [6]: 0.787 nM | EC50 (nM), luciferase assay, MOLP-8 [6]: 0.0186 nM | EC50 (nM), luciferase assay, RPMI8226 [6]: 0.117 nM | Top (RLU), luciferase assay, L363 [6]: 1050 RLU | Top (RLU), luciferase assay, MM.1S [6]: 3550 RLU | Top (RLU), luciferase assay, MOLP-8 [6]: 826 RLU | Top (RLU), luciferase assay, RPMI8226 [6]: 776 RLU | IC50 (nM), T-Cell Dependent Cytotoxicity, L363 [7]: 0.001 nM | IC50 (nM), T-Cell Dependent Cytotoxicity, MM.1S [7]: 0.002 nM | IC50 (nM), T-Cell Dependent Cytotoxicity, MOLP-8 [7]: 0.001 nM | IC50 (nM), T-Cell Dependent Cytotoxicity, RPMI8226 [7]: 0.009 nM | EC50 [8]: 0.817 nM | Top (MFI) [8]: 958 MFI

B2: Bis-108+147-S54R.H (bispecific antibody)
chain 1: EVQLVQSGAEVKKPGASVKVSCKASGYTFTSYVIHWVRQAPGQGLEWMGYFNPYNDGTKYNEEFKGRVTLTSDKSTSTAYMELRSLRSDDTAVYYCARGGVRRYFDVWGQGTTVTVSS
chain 2: EVQLVQSGAEVKKPGSSVKVSCKASGYTFTSYWMHWVRQAPGQCLEWMGNINPRSGATNYNEKFKSRVTLTVDKSTSTAYMELSSLRSEDTAVYYCARDRSSQYYFDYWGQGTTVTVSSGGGGSGGGGSGGGGSGGGGSDIVMTQSPDSLAVSLGERATINCKSSQSLLNSRSRKNYLAWYQQKPGQPPKLLIYWASTRESGVPDRFSGSGSGTDFTLTISSLQAEDVAVYYCTQSYTLRTFGCGTKVEIK
chain 3: DIQMTQSPSSLSASVGDRVTITCRASQDIGSNLNWLQQKPGKAIKRLIYATFGLDSGVPSRFSGSRSGTDFTLTISSLQPEDFATYYCQQYASFPYTFGGGTKVEIK
EC50 (GPRC5D on MM.1S cells [9]): 3.7 nM | Top signal (GPRC5D on MM.1S cells [9]): 2620 MFI | IC50 of T-cell dependent cytotoxicity on MM.1S cells (GPRC5D on MM.1S cells [10]): 1.25 nM | Top (%) target cell killing, MM.1S cells (GPRC5D on MM.1S cells [10]): 110% | Top signal (CD3 on Jurkat cells): 293 MFI | EC50, Jurkat-NFAT-Luciferase assay in the presence of MM.1S cells (GPRC5D on MM.1S cells [11]): 0.24 nM | Top RLU, Jurkat-NFAT-Luciferase assay in the presence of MM.1S cells (GPRC5D on MM.1S cells [11]): 362 RLU

B3: Bis-108+147-S102Q.H (bispecific antibody)
chain 1: B2 chain 1
chain 2: B2 chain 2 with R54S, S102Q
chain 3: B2 chain 3
EC50 (GPRC5D on MM.1S cells [9]): 1.29 nM | Top signal (GPRC5D on MM.1S cells [9]): 1820 MFI | IC50 of T-cell dependent cytotoxicity on MM.1S cells (GPRC5D on MM.1S cells [10]): 2.78 nM | Top (%) target cell killing, MM.1S cells (GPRC5D on MM.1S cells [10]): 131% | Top signal (CD3 on Jurkat cells): 141 MFI | EC50, Jurkat-NFAT-Luciferase assay in the presence of MM.1S cells (GPRC5D on MM.1S cells [11]): 0.26 nM | Top RLU, Jurkat-NFAT-Luciferase assay in the presence of MM.1S cells (GPRC5D on MM.1S cells [11]): 358 RLU

B4: Bis-108+147-S32T.L (bispecific antibody)
chain 1: B2 chain 1
chain 2: B2 chain 2 with R54S, S171T
chain 3: B2 chain 3
EC50 (GPRC5D on MM.1S cells [9]): 2 nM | Top signal (GPRC5D on MM.1S cells [9]): 2040 MFI | IC50 of T-cell dependent cytotoxicity on MM.1S cells (GPRC5D on MM.1S cells [10]): 4.76 nM | Top (%) target cell killing, MM.1S cells (GPRC5D on MM.1S cells [10]): 166% | Top signal (CD3 on Jurkat cells): 158 MFI | EC50, Jurkat-NFAT-Luciferase assay in the presence of MM.1S cells (GPRC5D on MM.1S cells [11]): 0.22 nM | Top RLU, Jurkat-NFAT-Luciferase assay in the presence of MM.1S cells (GPRC5D on MM.1S cells [11]): 380 RLU

B5: Bis-108+147-R100Q.H (bispecific antibody)
chain 1: B2 chain 1
chain 2: B2 chain 2 with R54S, R100Q
chain 3: B2 chain 3
EC50 (GPRC5D on MM.1S cells [9]): 1.87 nM | Top signal (GPRC5D on MM.1S cells [9]): 1830 MFI | IC50 of T-cell dependent cytotoxicity on MM.1S cells (GPRC5D on MM.1S cells [10]): 7.53 nM | Top (%) target cell killing, MM.1S cells (GPRC5D on MM.1S cells [10]): 46.3% | Top signal (CD3 on Jurkat cells): 50.9 MFI | EC50, Jurkat-NFAT-Luciferase assay in the presence of MM.1S cells (GPRC5D on MM.1S cells [11]): 0.98 nM | Top RLU, Jurkat-NFAT-Luciferase assay in the presence of MM.1S cells (GPRC5D on MM.1S cells [11]): 39.2 RLU
